Measurements taken from patent US7176184B2, “Treatment for inflammatory bowel disease with a fibronectin polypeptide” (Biogen Idec MA Inc., priority 1992, dated 2007).
Values joined by “and” are separate entries in the source; they are usually repeats but may differ in a detail not shown here. Equal values may be shown once. “Also recorded” adds a separate entry of the source.

Columns and labels:
[1] = test system: dual responder allergic sheep; assay: Sheep model of airways hyper-responsiveness (Ascaris suum antigen challenge); assay type: in vivo
Procedure: Experiments were performed essentially as described by Abraham et al.. […] To measure breathing mechanics and physical changes in the airways, the sheep were restrained in a prone position with heads immobilized. A balloon catheter was advanced through one nostril under topical anesthesia with 2% lidocaine solution to the lower esophagus, and a cuffed endotracheal tube was advanced through the other nostril (using a flexible fiberoptic bronchoscope as a guide) for the measurement of airway mechanics and during aerosol challenges. Pleural pressure was estimated with the esophageal balloon catheter (filled with 1 ml of air) positioned 5–10 cm from the gastroesophageal junction. In this position, end expiratory pleural pressure ranged between −2 and −5 cm H2O. Once the balloon was placed, it was secured so that it remained in position for the duration of the experiment. Lateral pressure in the trachea was measured with a sidehole catheter, (inner diam. 2.5 mm) advanced through and positioned distal to the tip of the endotracheal tube. Transpulmonary pressure (the difference between tracheal and pleural pressure) was measured with a differential pressure transducer catheter system (MP45, Validyne, Northridge, Calif.). […] Pulmonary resistance (RL) was measured by connecting the proximal end of the endotracheal tube to a Fleich pneumotachograph (Dyna Sciences, Blue Bell Pa.). Signals indicating flow and transpulmonary pressure were recorded on an oscilloscope recorder (Model DR-12; Electronics for Medicine, White Plains, N.Y.) linked to a computer for automatic calculation of pulmonary resistance (RL) from transpulmonary pressure, respiratory volume (obtained by digital integration) and flow by the mid-volume technique, analyzed from 5–10 breaths. Thoracic gas volume (Vtg) was measured immediately after determination of RL in a constant volume body plethysmograph. Specific lung resistance (SRL) was calculated from these values (SRL=Vtg×RL).
Airway responsiveness was determined by performing dose response curves to inhaled carbachol. The dose response curves were plotted using measurements of SRL taken immediately after inhalation of buffer (PBS) alone and after each consecutive administration of 10 breaths of increasing concentrations of carbachol in PBS. The concentrations of carbachol were 0.25%, 0.5%, 1.0%, 2.0% and 4.0% wt/vol in PBS. The provocation test was discontinued when SRL increased over 400% from the post-PBS value or after the highest carbachol concentration had been administered. Airway responsiveness was determined by calculating from the dose response curves the cumulative carbachol dose in breath units (BU) that increased specific lung resistance 400% over the post buffer value (PD400%). One breath unit was defined as one breath of a 1% wt/vol carbachol solution.
Each sheep was subjected to a trial as a control in which a placebo (PBS without additive) was used as a pretreatment 30 minutes before allergen challenge with Ascaris suum antigen (Greer Diagnostics, Lenoir, N.C.). The antigen solution was delivered as an aerosol using a disposable medical nebulizer (RAINDROP®, Puritan Bennett, Lenexa, Kans.) that provided an aerosol with a mass median aerodynamic diameter of 3.2 μM (geometric SD 1.9) as determined by an Andersen cascade impactor. The Ascaris suum extract was diluted in PBS to a concentration of 82,000 Protein Nitrogen Units(PNU)/ml. The output of the nebulizer was directed into a plastic T-tube, one end of which was connected to the inspiratory port of a Harvard respirator. A dosimeter connected to the nebulizer consisting of a solenoid valve and a 20 psi compressed air source and the solenoid valve was activated at the beginning of the inspiratory cycle of the Harvard respirator for one second. The aerosol delivered at a tidal volume of 500 ml and a rate of 20 breaths per min. for 20 min. Each sheep was challenged with an equivalent dose of antigen (400 breaths) in the control and VCAM1-IgG1 trials. […]

[2] = test system: NOD mice receiving spleen cells from diabetic donors; assay: Adoptive transfer of diabetes in NOD mice; assay type: in vivo
From the text: For the adoptive transfer of diabetes experiments, NOD mice were obtained from Taconic Farms (Germantown, N.Y.) or from the Joslin Diabetes Center (Boston, Mass.). Spontaneously diabetic (D) females of recent onset (13–20 weeks of age) were used as spleen cell donors and 8 week old nondiabetic (Y) females served as recipients. Spleen cells from 4 week old nondiabetic (Y) female donors which fail to transfer disease were used as a negative control.
Recipient mice were placed on acidified water (1:8400 dilution of concentrated HCl in water) one week prior to sublethal irradiation (775 rad) performed in split doses (300 rad, 300 rad, and 175 rad) on each of three days (day −2, −1, and the day of transfer), in order to minimize any incidence of intestinal infection subsequent to high dose irradiation (Gamma Cell 1000 Cesium ^137 source, Nordion International, Inc., Ontario, Canada). Spleens were harvested from diabetic donors or from nondiabetic controls, cell suspensions made and red cells lysed with Hemolytic Geys solution. […] Another group received PBS alone without cells transferred. The fusion protein LFA-3Ig (LFA-3TIP) was isolated and purified as described in PCT US92/02050 and Miller et al., 1993 [36]. […] Diabetes onset was monitored as described above.

VCAM-1-expressing cells = assay: Leukocyte adhesion to VCAM-1-expressing cells; assay type: cell-based
CTT VLA4 on CTT PBLs = assay: FACS analysis of binding of anti-VLA-4 monoclonal antibodies to CTT peripheral blood mononuclear leukocytes; parameters: species or system cotton top tamarin
Procedure: Blood samples (3 ml) from CTTs were heparinized and the CTT peripheral blood mononuclear leukocytes (PBLs) were isolated using a Ficoll-Hypaque gradient (Pharmacia) according to the manufacturer's instructions for isolation of human PBLs. CTT PBLs were examined for their ability to bind to the murine anti-human VLA-4 monoclonal antibodies HP1/2 and HP2/1 by FACS analysis using a Becton Dickenson FACStar and standard techniques (see, e.g., Lobb et al., 1991a).

VLA-4 = VLA-4 (Homo sapiens, UniProt P13612); assay: VLA-4-mediated T cell activation; assay type: cell-based
[3] = test system: cotton top tamarins (CTTs) exhibiting symptoms of spontaneous colitis; assay: Cotton top tamarin trials: acute inflammation index from colon biopsies; assay type: in vivo; parameters: Day 0 AII (acute inflammation index) / Day 10 AII (acute inflammation index): scale not given here; conditions: for Day 0 AII (acute inflammation index) / Day 10 AII (acute inflammation index): individual treated CTTs
Procedure: Five CTTs received HP1/2 and five received placebo, by intravenous injection. The CTTs receiving HP1/2 were injected with 1 mg HP1/2 per day (i.e., about 2 mg/kg/day, based on approximate half-kilogram weight of a CTT) for eight days (on Days 0, 1, 2, 3, 4, 5, 6, and 7 of the trial). Colon tissue samples obtained from the animals were biopsied every other day (on Days 0, 2, 4, 6, 8, and 10 of the trial). Data from the biopsies were used to determine an acute inflammation index for each animal, giving a semi-quantitative analysis of the course of the colitis. (See, Madara et al..) The inflammation indices before the trial began (Day 0) and at the end of the trial at Day 10 are set forth in Table II, below: (“Treated CTTs” received antibody-HP1/2; “Control CTTs” received placebo) The trial described in Example III was repeated using 14 CTTs, 7 receiving HP1/2 and 7 receiving placebo.

[4] = 15 mg aerosol 2, 8 and 24 h after antigen challenge, listed as VCAM-Ig
[5] = 30 mg aerosol 2 and 24 h after antigen challenge (optimal dose), listed as VCAM-Ig
[6] = 30 mg aerosol 30 min before and 8 h after antigen challenge, listed as VCAM-Ig
[7] = 30 mg aerosol 30 min before antigen challenge
[8] = 60 mg aerosol 30 min before antigen challenge, listed as VCAM-Ig

Sequence of VLA-4 (P13612 34-1032): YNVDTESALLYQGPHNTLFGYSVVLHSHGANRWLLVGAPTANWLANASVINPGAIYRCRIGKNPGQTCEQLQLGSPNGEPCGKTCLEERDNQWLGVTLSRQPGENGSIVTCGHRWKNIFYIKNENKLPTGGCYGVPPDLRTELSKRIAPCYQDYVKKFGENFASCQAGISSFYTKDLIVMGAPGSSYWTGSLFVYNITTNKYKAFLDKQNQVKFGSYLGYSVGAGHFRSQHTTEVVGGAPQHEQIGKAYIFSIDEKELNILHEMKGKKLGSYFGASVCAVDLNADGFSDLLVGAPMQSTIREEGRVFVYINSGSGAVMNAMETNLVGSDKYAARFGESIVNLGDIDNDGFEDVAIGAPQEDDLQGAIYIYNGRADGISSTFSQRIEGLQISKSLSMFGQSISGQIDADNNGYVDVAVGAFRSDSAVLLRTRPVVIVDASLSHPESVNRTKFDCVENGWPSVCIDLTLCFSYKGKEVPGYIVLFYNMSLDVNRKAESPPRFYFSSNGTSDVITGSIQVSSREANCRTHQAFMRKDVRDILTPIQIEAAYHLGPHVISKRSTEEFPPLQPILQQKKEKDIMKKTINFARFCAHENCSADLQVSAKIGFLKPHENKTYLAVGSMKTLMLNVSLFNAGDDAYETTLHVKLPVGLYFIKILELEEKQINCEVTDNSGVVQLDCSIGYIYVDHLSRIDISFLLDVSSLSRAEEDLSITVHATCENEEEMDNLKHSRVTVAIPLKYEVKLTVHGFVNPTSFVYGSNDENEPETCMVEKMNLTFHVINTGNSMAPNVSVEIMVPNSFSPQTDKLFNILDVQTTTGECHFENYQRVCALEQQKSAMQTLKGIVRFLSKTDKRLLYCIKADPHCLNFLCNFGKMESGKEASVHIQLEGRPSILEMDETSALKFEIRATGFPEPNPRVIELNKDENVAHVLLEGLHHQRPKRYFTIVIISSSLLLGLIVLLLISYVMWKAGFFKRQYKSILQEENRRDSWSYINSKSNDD
Sequence of VLA-4 (P05556 21-798 partner): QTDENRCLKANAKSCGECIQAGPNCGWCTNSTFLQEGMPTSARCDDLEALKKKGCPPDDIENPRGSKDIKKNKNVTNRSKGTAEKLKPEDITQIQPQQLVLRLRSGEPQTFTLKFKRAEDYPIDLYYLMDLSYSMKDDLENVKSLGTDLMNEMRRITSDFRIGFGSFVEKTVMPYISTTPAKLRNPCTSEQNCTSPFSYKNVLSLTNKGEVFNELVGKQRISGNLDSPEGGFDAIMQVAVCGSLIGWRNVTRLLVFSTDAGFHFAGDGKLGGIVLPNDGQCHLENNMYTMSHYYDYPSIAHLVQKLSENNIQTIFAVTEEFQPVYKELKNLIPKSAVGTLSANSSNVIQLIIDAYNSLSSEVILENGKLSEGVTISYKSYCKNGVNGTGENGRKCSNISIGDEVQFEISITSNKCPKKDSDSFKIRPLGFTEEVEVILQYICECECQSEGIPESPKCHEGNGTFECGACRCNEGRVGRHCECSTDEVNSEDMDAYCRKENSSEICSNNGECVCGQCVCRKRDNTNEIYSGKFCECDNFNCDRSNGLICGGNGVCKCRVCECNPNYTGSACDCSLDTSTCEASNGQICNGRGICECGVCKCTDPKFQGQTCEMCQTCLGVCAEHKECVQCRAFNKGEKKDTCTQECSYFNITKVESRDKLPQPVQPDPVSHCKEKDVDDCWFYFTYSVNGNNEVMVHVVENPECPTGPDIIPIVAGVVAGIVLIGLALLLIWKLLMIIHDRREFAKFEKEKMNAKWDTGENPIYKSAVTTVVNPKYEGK

VCAM 2D-IgG: soluble form of VCAM1: two N-terminal domains of VCAM1 fused to human IgG1 heavy chain constant region (hinge, CH2, CH3); SEQ ID NO: 5/12
airways hyper-responsiveness (AHR) [1, 4]: blockage of the AHR; also recorded: inhibition of AHR | late phase response (LPR) [1, 4]: partial blockage; also recorded: significant but partial inhibition | airways hyper-responsiveness (AHR) [1, 5]: complete blockage; also recorded: complete inhibition | late phase response (LPR) [1, 5]: complete blockage; also recorded: complete inhibition | airways hyper-responsiveness (AHR) [1, 6]: no blockage; also recorded: no inhibition | late phase response (LPR) [1, 6]: blocked completely; also recorded: complete inhibition | airways hyper-responsiveness (AHR) [1, 7]: no effect | late phase response (LPR) [1, 7]: significant but partial inhibition | airways hyper-responsiveness (AHR) [1, 8]: blocked; also recorded: inhibition of AHR | late phase response (LPR) [1, 8]: partial blockage; also recorded: significant but partial inhibition | late phase response (LPR) versus placebo control ([1]; all dosing regimens, ten animals): partial or complete inhibition | onset of diabetes in recipients of cells from diabetic donor mice ([2]; 100 μg i.p. through day 17): significantly inhibits the onset of diabetes | serum level of fusion protein (ELISA) ([2]; 100 μg/0.2 ml i.p. twice weekly through day 17): sufficient to saturate VLA4-positive cells | incidence of diabetes ([2]; by day 30 post-transfer, recipients of cells from diabetic donors, 100 μg i.p. through day 17, n=5): 60%

B1: HP1/2: murine anti-human VLA-4 monoclonal antibody (IgG1) obtained from Biogen, Inc.; VH/VK in SEQ ID NO: 1-4 (antibody, listed as Mus musculus, V domains shown)
VH: EVKLQQSGAELVKPGASVKLSCTASGFNIKDTYMHWVKQRPEQGLEWIGRIDPASGDTKYDPKFQVKATITADTSSNTAWLQLSSLTSEDTAVYYCADGMWVSTGYALDFWGQGTTVTVSS
VL: SIVMTQTPKFLLVSAGDRVTITCKASQSVTNDVAWYQQKPGQSPKLLIYYASNRYTGVPDRFTGSGYGTDFTFTISTVQAEDLAVYFCQQDYSSPYTFGGGTKLEI
leukocyte adhesion to VCAM-1-expressing cells (VCAM-1-expressing cells): block | binding to CTT PBLs (CTT VLA4 on CTT PBLs): bound | VLA-4-mediated T cell activation (VLA-4): not to promote | change in acute inflammation index ([3]; Example III, Day 0 to Day 10): significant (p<0.01) decrease | Day 0 AII (acute inflammation index) ([3]; Example III, before the trial began, 1 mg HP1/2 per day i.v. Days 0-7): 2 (3×) and 1 (2×) | Day 10 AII (acute inflammation index) ([3]; Example III, end of trial, 1 mg HP1/2 per day i.v. Days 0-7): 1 and 0 (4×) | Day 0 AII, MEAN ([3]; Example III, mean of 5 treated CTTs, before the trial began): 1.6 | Day 10 AII, MEAN ([3]; Example III, mean of 5 treated CTTs, end of trial): 0.2 | Day 0 AII (acute inflammation index) ([3]; Example IV (repeat trial), Day 0): 2 | Day 10 AII (acute inflammation index) ([3]; Example IV (repeat trial), Day 10): 0 (5×) and 1 and 2 | change in acute inflammation ([3]; Example IV, Day 0 to Day 10): significant decrease | Day 0 AII, MEAN ([3]; Example IV, mean of 7 treated CTTs, Day 0): 2.0 | Day 10 AII, MEAN ([3]; Example IV, mean of 7 treated CTTs, Day 10): 0.43 | inflammation of biopsied intestinal tissue ([3]; summary statement): significant reduction in inflammation
